Series [1] can be described thus: protein stability of Hfq65-K3 mutants. In kind it is physicochemical, E. coli.
In series [2] the test system is RNA molecular beacon and Target RNA. Briefly: RNA annealing kinetics (molecular beacon and Target RNAs), stopped-flow fluorescence. The conditions noted are these: 50 nM molecular beacon, 100 nM Target, Hfq65 variants, TNK buffer, 30 °C. It is filed as biochemical. The method, then:
(§1) Figure 2. CTD and RNA occupy the same rim binding site. […] The CTD linker is shown in purple, the acidic tip in red and the N-terminal FITC as a yellow star. Hfq core is shown in cyan, with basic rim patches in dark blue. […] (C) Reaction scheme for annealing an RNA molecular beacon to a target RNA (open bar) ([Hopkins et al., 2011]; [Panja et al., 2015]). (D) Progress curves for annealing 50 nM molecular beacon and 100 nM Target by 50 nM Hfq65 hexamer at 30°C, measured by stopped-flow fluorescence. See Figure 2—figure supplement 3 for further data. (E) Contribution of core residues to CTD binding. Interaction energy (Expected Energetic Contribution; EEC) in silico for a core residue in the Rosetta models (solid symbols and solid line; adjusted R^2 = 0.77) or the average annealing rates for Target and Target-A18 relative to Hfq65 (open symbols and dashed line; adjusted R^2 = 0.94) versus experimental CTD binding energy (∆∆G°) for each Hfq65 variant. The binding energy, ∆∆G° = –RTln(Kd^MUT/Kd), reflects the perturbation to CTD binding by a mutation in Hfq65. The interaction energy in silico or EEC is defined as the average energy of a tail–core interaction multiplied by the average number of tail–core interactions per model (Figure 1B, top and Equation 3). The relative annealing rate for Hfq65 variants, krel = kobs^MUT/kobs^WT, is <1 if the mutated residue is important for RNA annealing. Figure 2—figure supplement 1. SDS-PAGE of purified Hfq variants. […] Annealing of 100 nM Target RNA to 50 nM beacon RNA by Hfq65 and Hfq65 variants was measured by stopped flow fluorescence at 30°C in 1 × TNK buffer. […] The change in fluorescence emission intensity was normalized to the maximum fluorescence within an experiment. […]
To determine how much core residues that bind the CTD contribute to Hfq’s RNA annealing activity, we compared the effect of rim mutations on the rate of base pairing between an RNA molecular beacon and the 16 nt Target RNA by stopped-flow fluorescence spectroscopy (Figure 2C) ([Hopkins et al., 2011]). […]

Series [3] in a line: SDS-PAGE oligomerization of purified Hfq variants. In kind it is physicochemical, E. coli. Conditions: 4–20% SDS-PAGE, ~2.8 µg protein, 2% SDS, boiled. The procedure:
as §1, with “variants. WT Hfq assembles into hexamers and dodecamers that are stable to SDS-PAGE, which can be used to evaluate the oligomerization of Hfq variants. Purified Hfq protein (~2.8 µg) was separated on a 4–20% SDS-PAGE gel and stained with Coomassie blue (lanes 2–6). Samples were prepared in 2% SDS and boiled before loading. Lane 1, Protein standards (10 µL All Blue Precision Plus, […]).” for “variants.”

The target of series [4] is T1, E. coli Hfq65 (Hfq core; truncated variant lacking the CTD) (E. coli, UniProt P0A6X3 1-65).
T1 construct: Untagged; Forms a homohexameric ring; also called core Hfq; Hfq65 core
In words: fluorescence polarisation; 45 nM FITC-labelled peptide titrated with Hfq65 or variant (0–100 µM Hfq monomer), 50 mM Tris·HCl pH 7.5 (low salt), 30 °C, duplicate, single-site isotherm; Kd in Hfq monomer. Conditions: both partners purified.

For series [5], the target named is Hfq65 (Hfq core, CTD deleted) (Escherichia coli, UniProt P0A6X3 1-65). In words: competition; displaces CTD-FITC peptide; strong; IC50 only in figure; Anisotropy: 10 mM Tris-HCl pH 7.5, 50 mM NaCl, 50 mM KCl, 30 C; CTD-FITC competition: 50 mM Tris-HCl pH 7.5, 30 C; pUC19 EMSA: 40 mM Tris-HCl pH 7.5, 0.14 mM EDTA, 35 mM NH4Cl, 3.7% glycerol, 25 C (competition legend 30 C). Conditions: protein: recombinant, tags: untagged, chain copies: 6. On the technique in general: A gel shift assay detects complexes by their altered migration in electrophoresis.

The next series addresses Hfq102 (wild-type Hfq) (Escherichia coli, UniProt P0A6X3 1-102). In words: competition; vs pUC19 EMSA; strongest, saturates at 1:1; Anisotropy: 10 mM Tris-HCl pH 7.5, 50 mM NaCl, 50 mM KCl, 30 C; CTD-FITC competition: 50 mM Tris-HCl pH 7.5, 30 C; pUC19 EMSA: 40 mM Tris-HCl pH 7.5, 0.14 mM EDTA, 35 mM NH4Cl, 3.7% glycerol, 25 C (competition legend 30 C). The conditions noted are these: protein: recombinant, tags: untagged, chain copies: 6.

The test system of the next series is Hfq102·pUC19 complex. In words: RNA or DNA competition of Hfq102·pUC19 complexes, EMSA. It is filed as binding, E. coli. The procedure:
Figure 5. CTD and RNAs inhibit DNA binding to Hfq by obstructing the basic rim patch. (A, B) Agarose gel electrophoretic mobility shift assays of 0–3.3 μM hexamer Hfq102, Hfq102-R16A, Hfq65 or Hfq65-R16A binding to 6 nM linear pUC19 DNA ([…]) at 25°C, stained with SYBR Gold. Hfq65 forms large aggregates that fail to enter the gel (Figure 5—figure supplement 1). (C, D) Line densitometry of DNA migration in (A, B). Free pUC19 (no Hfq) is shown in light grey. Samples with increasing Hfq concentration are shown in darker shades of grey. (E, F) RNA competition. Complexes of 0.5 μM Hfq102 hexamer and 6 nM linear pUC19 (black) were challenged by 0–2 μM RNA or DNA competitor (darker shades of red). pUC19 control in the absence of Hfq is shown in light grey. […] Digestion of Hfq65 and Hfq65-R16A with Proteinase K liberates DNA from Hfq•DNA aggregates, allowing it to be detected (lanes 9 and 10). […] The small proportion of Hfq65·DNA complexes remaining in the supernatant were only detected in the gel after treatment with salt. […]
Samples (10 µL) containing linear pUC19 (0.145 nmol bp), 0–3.333 µM Hfq hexamer, in 40 mM Tris-HCl pH 7.5, 0.14 mM EDTA, 35 mM NH4Cl, 3.7% (v/v) glycerol, 0.05% (w/v) bromophenol blue were incubated at 25°C for 30 min. […] The fluorescence intensity was measured on a line from the bottom edge of the well through the middle of the lane to visualize the migration of pUC19. […]

For orientation: Kd means the constant that tells how readily two partners part at equilibrium.

*: point of attachment. FITC = O=C1OC2(c3ccc(O)cc3Oc3cc(O)ccc32)c2ccc(NC(=S)*)cc21; Ahx = NCCCCCC(=O)O

With Hfq65-K3Q, in series [1], the “formation of stable protein” value is given as “neither Hfq65-K3S nor Hfq65-K3Q formed stable proteins”.
On the same count and under the same terms, next, Hfq65-K3S: “neither Hfq65-K3S nor Hfq65-K3Q formed stable proteins”.
Turning to Hfq65-Q35A, the “observed annealing rate of Hfq65 rim mutants” value in series [2] is “relatively unaffected”.
Regarding “Hfq102-R16A: rim mutation R16A of full-length Hfq (printed R16A in b39)”, the “oligomeric state on SDS-PAGE” value in series [3] is “only forms hexamer (blue dot) and monomer”.

B1: BsCTD-FITC (B. subtilis Hfq CTD peptide) (peptide)
peptide: {FITC-Ahx}-QLELE-OH
SMILES: CC(C)C[C@H](NC(=O)[C@H](CCC(=O)O)NC(=O)[C@H](CC(C)C)NC(=O)[C@H](CCC(N)=O)NC(=O)CCCCCNC(=S)Nc1ccc2c(c1)C(=O)OC21c2ccc(O)cc2Oc2cc(O)ccc21)C(=O)N[C@@H](CCC(=O)O)C(=O)O
notes: Hfq, Bacillus subtilis, C-terminal end of the CTD; also called BsCTD-FITC peptide
On to B1, for which the Kd in series [4] is 8.7 µM.

B2: RprA sRNA (structured_RNA)
RNA: GGGACGGUUAUAAAUCAACAUAUUGAUUUAUAAGCAUGGAAAUCCCCUGAGUGAAACAACGAAUUGCUGUGUGUAGUCUUUGCCCAUCUCCCACGAUGGGCUUUUUUUU
On to B2, for which the binding result in series [5] is given as “binds”.

B3: DsrA sRNA (structured_RNA)
RNA: GGGAACACAUCAGAUUUCCUGGUGUAACGAAUUUUUUAAGUGCUUCUUGCUUAAGCAAGUUUCAUCCCGACCCCCUCAGGGUCGGGAUUUUUUU
Regarding B3, the binding result in series [5] was “binds”.

B4: ChiX sRNA (structured_RNA)
RNA: GGGACACCGUCGCUUAAAGUGACGGCAUAAUAAUAAAAAAAUGAAAUUCCUCUUUGACGGGCCAAUAGCGAUAUUGGCCAUUUUUUU
Consider B4, for which the binding result (in series [5] (label: 32P in annealing EMSA); with Hfq102 (wild-type Hfq) (label: 32P in annealing EMSA)) was “binds” throughout.

B5: ChiX: Class II sRNA, transcribed in vitro (nucleic acid)
chain: B4 RNA
modifications: unmodified RNA
notes: Class II sRNA, transcribed in vitro
In the case of B5, the “competition against pUC19 DNA for binding to Hfq102” value in the series on Hfq102·pUC19 complex is recorded as “strongest competitors”.

B6: RyhB sRNA (structured_RNA)
RNA: GGGCGAUCAGGAAGACCCUCGAGGAGAACCUGAAAGCACGACAUUGCUCACAUUGCUUCCAGUAUUACUUAGCCAGCCGGGUGCUGGCUUUUU
For B6, the binding result (in series [5]; with Hfq102 (wild-type Hfq)) was “binds” throughout.

B7: RyhB: sRNA, transcribed in vitro (nucleic acid)
chain: B6 RNA
modifications: unmodified RNA
notes: sRNA, transcribed in vitro
Take B7: the “competition against pUC19 DNA for binding to Hfq102” value in the series with Hfq102·pUC19 complex is “strongest competitors”.

The record behind these values is publication PMC5606850, “Acidic C-terminal domains autoregulate the RNA chaperone Hfq” (eLife, 2017).
